Results: US20250027068A1 (published 2025)
Changes are numbered by the printed parent chain.

B1: PRT-376 (enzyme)
chain: MVTSVWTKGVTPPTNFTYGEDVLHAPYVANQGWYDITKLFNGKDDLLCGAATAGNMLHWWFDQNKEQIENYLKKHPEKQKINFNGEQMFDVKEAIDTKDSQLDSKLFEYFKEKAFPYLSTKHLGVFPDHVIDMFINGYRLSLTNHGPTPVKRGSKDPRGGIFDAVFTRGDQSKLLTNRHDFKEKTLKEISDLIKQELTEGKALGISHTYANVRINHVINLWGADFDAEGNLEAIYVTDSDSNASIGMKKYFVGVNSNGKVAISAKEIEEDNIGAQVLGLFTLSTGQDIWNQTN
B2: PRT-280 (enzyme)
chain: MVTSVWTKGVTPPAKFTQGEDVFHAPYVANQGWYDITKTFNGKDDLLCGAATAGNMLHWWFDQNKEKIEAYLKKHPDKQKIMFGDQELLDVRKVINTKGDQTNSELFNYFRDKAFPNLSARRIGVMPDLVLDMFINGYYLNVYKTQTTDVNRTYQEKDRRGGIFDAVFTRGDQSKLLTSRHDFKEKNLKEISDLIKKELTEGKALGLSHTYANVGINHVINLWGADFDSNGNLKAIYVTDSDSNASIGMKKYFVGVNSSGKVAISAKEIKEDNIGAQVLGLFTLSTGQDSWNQTN
B3: PRT-288 (enzyme)
chain: B2 chain with V28D, T39E, G215R, N217G, F253G, S259A
B4: PRT-222 (enzyme)
chain: MEVVEVWPYGQNPNGKTEILSQTEDSESLQRLRDIEDFQAEKKMQNVVYTKWLDGVDVKDHDFRKIVDGNIAYYATPLLNGRGFYDINKDFNRDSDKCAAAVAANMFHYWLDINRDNVDRFLRQNPEKHGIIELPDGQLKLSDFLNTYESDHGYRDKSKLFDFISNNFNGPVWTDKLLDNYINGYAYNYKYGRTIEDPTKNTSKINFFKEVFNEKILTNNHSIRNQNEFSVLLSEALYTGKAIGLSYGPAGLRHSLGHIISVWGADLDADGNVVAIYVTDSDDKKLTIGDERVGLKRYKISTDDEGRLRLTAYEETHNTGGQIRGLWTLDTGKYAWADYFDKTEQTGTDQAEQLEHHHHHH
B5: PRT-225 (enzyme)
chain: B4 chain with M44K, Q45E, A72E, G306N, L308A, H317D, Y334Q
B6: PRT-226 (enzyme)
chain: B4 chain with M44K, K59D, I71T, A72E, I113R, D175N, A186G, L308A, H317D, Y334Q
B7: PRT-224 (enzyme)
chain: B4 chain with M44K, Y334Q
B8: PRT-223 (enzyme)
chain: B4 chain with M44K, Q45E, V231D, G306N, Y334Q

Molecular target: pooled human IgG (human IgG1, 2, 3 and 4) (human)
Assay: cell-based or functional assay
Also: test concentration or dose not given here.

Binder | Enzyme Activity Endpoint Assay: Fab′2 [ng/µL] | Enzyme Activity Endpoint Assay: Fc [ng/µL] | Enzyme Activity Endpoint Assay: IgG [ng/µL] | Enzyme Activity Endpoint Assay: scIgG [ng/µL]
B1 | 496 | 325 | 0 | 196
B2 | 423 | 305 | 319 | 0
B3 | 439 | 334 | 348 | 0

Molecular target: pooled human IgG (human)
Assay: cell-based or functional assay

Binder | Enzyme Activity Endpoint Assay (purified): Fab′2 [ng/µL] | Enzyme Activity Endpoint Assay (purified): Fc [ng/µL] | Enzyme Activity Endpoint Assay (purified): IgG [ng/µL] | Enzyme Activity Endpoint Assay (purified): scIgG [ng/µL]
B4 | 487 | 78 | 1550 | 21
B5 | 0 | 63 | 1500 | 0
B6 | 0 | 0 | 1960 | 0
B7 | 217 | 382 | 344 | 314
B8 | 189 | 391 | 375 | 316
